Literature values in article PMC3290099.
pKd: −log10 of the molar value.

Target: CIB1 (Homo sapiens) (UniProt Q99828)
Sequence of UniProt Q99828 (Q99828 2-191): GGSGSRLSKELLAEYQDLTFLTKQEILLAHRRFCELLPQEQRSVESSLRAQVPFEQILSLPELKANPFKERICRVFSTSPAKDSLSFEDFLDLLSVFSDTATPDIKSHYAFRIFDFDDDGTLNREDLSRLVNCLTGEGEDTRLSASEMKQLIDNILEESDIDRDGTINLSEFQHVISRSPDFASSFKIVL

pKd: 5.85
Substance: Integrin αIIb (from UniProt P08514)
